In patent publication EP3816180A1 (Max-Planck-Gesellschaft zur Förderung der Wissenschaften …, dated 2021) one finds Kd data, which are given here for one molecule.

This assay addresses T1, cpHaloΔ9mer.
T1 construct: Large fragment of split, circularly permuted HaloTag7; Made in E. coli; also called cpHalo_9mer; cpHalo156-141
Put plainly: ITC; 9mer peptide (30 mM) titrated into cpHaloΔ9mer (0.6 mM), HEPES 50 mM pH 7.3, NaCl 50 mM; three independent measurements.

T1 sequence (chain, as listed by the source mutant): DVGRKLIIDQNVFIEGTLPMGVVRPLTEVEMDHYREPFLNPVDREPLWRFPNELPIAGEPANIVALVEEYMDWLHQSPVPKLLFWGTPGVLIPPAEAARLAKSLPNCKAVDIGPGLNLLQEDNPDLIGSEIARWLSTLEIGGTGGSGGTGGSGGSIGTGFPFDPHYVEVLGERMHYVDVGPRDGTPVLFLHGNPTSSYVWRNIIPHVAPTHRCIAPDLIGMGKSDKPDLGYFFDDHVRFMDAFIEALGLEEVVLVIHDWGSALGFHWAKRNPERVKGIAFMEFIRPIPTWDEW

B1: 9mer peptide (peptide)
peptide: ARETFQAFR
notes: Free peptide titrated in ITC; also called PEP1
On to B1, for which the Kd was determined as 5.3 mM.

A word on the Kd: it is the concentration at which binding is half-saturated. High values mean lower affinity, low ones higher affinity.
